# Experimental data as given in publication PMC7617739, “Seo1p, a high-affinity, plasma membrane transporter of the γ-Glu-met dipeptide in yeasts and fungi” (The Journal of Biological Chemistry, 2025).
# B1: Seo1p (Saccharomyces cerevisiae S288C) (protein)
# chain: MYSIVKEIIVDPYKRLKWGFIPVKRQVEDLPDDLNSTEIVTISNSIQSHETAENFITTTSEKDQLHFETSSYSEHKDNVNVTRSYEYRDEADRPWWRFFDEQEYRINEKERSHNKWYSWFKQGTSFKEKKLLIKLDVLLAFYSCIAYWVKYLDTVNINNAYVSGMKEDLGFQGNDLVHTQVMYTVGNIIFQLPFLIYLNKLPLNYVLPSLDLCWSLLTVGAAYVNSVPHLKAIRFFIGAFEAPSYLAYQYLFGSFYKHDEMVRRSAFYYLGQYIGILSAGGIQSAVYSSLNGVNGLEGWRWNFIIDAIVSVVVGLIGFYSLPGDPYNCYSIFLTDDEIRLARKRLKENQTGKSDFETKVFDIKLWKTIFSDWKIYILTLWNIFCWNDSNVSSGAYLLWLKSLKRYSIPKLNQLSMITPGLGMVYLMLTGIIADKLHSRWFAIIFTQVFNIIGNSILAAWDVAEGAKWFAFMLQCFGWAMAPVLYSWQNDICRRDAQTRAITLVTMNIMAQSSTAWISVLVWKTEEAPRYLKGFTFTACSAFCLSIWTFVVLYFYKRDERNNAKKNGIVLYNSKHGVEKPTSKDVETLSVSDEK
# Substrate: CSCC[C@H](NC(=O)CC[C@H](N)C(=O)O)C(=O)O
# Test: cells, lysate or membranes
protein,measurement,value
B1,Km,48 µM
